Experimental data as given in the supplement of paper PMC7125110.
± gives the standard error. For some of these results: Fewer inactive variants are shown than the library holds.

B1: glmS ribozyme (parent)
chain: AUAAAAGCGCCAGAACUACAGAAAUGUAGUUGACGAGGAGGAGGUUUAUCGAAUUUUCGGCGGAUGCCUCCAAA

Experiments:
Settings in all cases: with glucosamine-6-phosphate
[1] = variants of: B1; assay: kcat; higher = faster cleavage; RNA array
How it was run: (§1)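 Barcoded glmS ribozyme variants on sequenced MiSeq chips were transcribed in situ by E. coli RNA polymerase and tracked through a hybridised Cy3 probe at 37 °C. Glucosamine-6-phosphate (40 μM to 10 mM) in HEPES/KCl/Mg(OAc)2 buffer was flowed in, and tiles were imaged over ~14 h. Signals were normalised to baseline and to non-cleaving reference variants; per-tile medians were fit to one- or two-exponential decays to give kobs. kcat and KM came from weighted Michaelis–Menten fits across concentrations.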

[2] = variants of: B1; assay: self-cleavage kobs at 40 uM GlcN6P; higher = faster cleavage; RNA array
How it was run: as §1

[3] = variants of: B1; assay: self-cleavage kobs at 160 uM GlcN6P; higher = faster cleavage; RNA array
How it was run: as §1

[4] = variants of: B1; assay: self-cleavage kobs at 640 uM GlcN6P; higher = faster cleavage; RNA array
How it was run: as §1

[5] = variants of: B1; assay: self-cleavage kobs at 2500 uM GlcN6P; higher = faster cleavage; RNA array
How it was run: as §1

[6] = variants of: B1; assay: self-cleavage kobs at 10000 uM GlcN6P; higher = faster cleavage; RNA array
How it was run: as §1

[7] = variants of: B1; assay: KM; higher = weaker cofactor use; RNA array
How it was run: as §1

Variant | kcat [1] | self-cleavage kobs at 40 uM GlcN6P [2] | self-cleavage kobs at 160 uM GlcN6P [3] | self-cleavage kobs at 640 uM GlcN6P [4] | self-cleavage kobs at 2500 uM GlcN6P [5] | self-cleavage kobs at 10000 uM GlcN6P [6] | KM [7]
A14U C71U | 0.00742 ± 0.0032 s⁻¹ | 0.000206 ± 3.1e-05 s⁻¹ | 0.000492 ± 8.1e-05 s⁻¹ | 0.00138 ± 0.00019 s⁻¹ | 0.00252 ± 0.00058 s⁻¹ | 0.00786 ± 0.00099 s⁻¹ | –
A53U C70A | 0.000125 ± 2.5e-05 s⁻¹ | 4.52e-05 ± 7.1e-06 s⁻¹ | 7.24e-05 ± 1.2e-05 s⁻¹ | 0.000117 ± 1.3e-05 s⁻¹ | – | – | –
A14C C16A | 6.62e-05 ± 7.2e-06 s⁻¹ | – | – | 2.75e-05 ± 1.3e-05 s⁻¹ | 6.73e-05 ± 1.1e-05 s⁻¹ | 5.95e-05 ± 6.9e-06 s⁻¹ | –
A14G U46G | 0.0115 ± 0.0033 s⁻¹ | 0.000421 ± 7.1e-05 s⁻¹ | 0.00247 ± 0.001 s⁻¹ | 0.00524 ± 0.0017 s⁻¹ | 0.0199 ± 0.0079 s⁻¹ | 0.00927 ± 0.0027 s⁻¹ | 997 ± 360 µM
G37C A53U U69G | 3.72e-05 ± 1.7e-05 s⁻¹ | – | – | 3.81e-05 ± 1.9e-05 s⁻¹ | 6.4e-05 ± 2.4e-05 s⁻¹ | – | –
A12U A42G | 0.0985 ± 0.045 s⁻¹ | 0.00296 ± 0.00037 s⁻¹ | 0.00676 ± 0.0033 s⁻¹ | 0.0249 ± 0.006 s⁻¹ | – | 0.116 ± 0.044 s⁻¹ | –
C61A A64G | < 1e-05 s⁻¹ | < 1e-05 s⁻¹ | – | – | – | – | –
G29U G32A | 0.00151 ± 0.00013 s⁻¹ | 3.81e-05 ± 1.5e-05 s⁻¹ | 0.000105 ± 2.4e-05 s⁻¹ | 0.000328 ± 6.3e-05 s⁻¹ | 0.000738 ± 0.00012 s⁻¹ | 0.00128 ± 0.00016 s⁻¹ | 2210 ± 350 µM
U65G C68A | 6.34e-05 ± 1e-06 s⁻¹ | – | – | – | 5.3e-05 ± 1.2e-05 s⁻¹ | 6.04e-05 ± 9.2e-06 s⁻¹ | 501 ± 50 µM
G60U C67A C68U | < 1e-05 s⁻¹ | – | – | < 1e-05 s⁻¹ | – | < 1e-05 s⁻¹ | –
G38U C58U U69G | 0.000168 ± 1.3e-05 s⁻¹ | 0.000148 ± 4.2e-05 s⁻¹ | 0.000207 ± 5.2e-05 s⁻¹ | 0.000157 ± 2.8e-05 s⁻¹ | 0.000189 ± 6.3e-05 s⁻¹ | 0.000156 ± 4.9e-05 s⁻¹ | –
U30C U47A | 0.000176 ± 9.3e-06 s⁻¹ | – | – | 5.72e-05 ± 8.2e-06 s⁻¹ | 0.000106 ± 1.2e-05 s⁻¹ | 0.00016 ± 1.6e-05 s⁻¹ | 1400 ± 190 µM
U54A U65A | 0.00834 ± 0.0013 s⁻¹ | 0.000105 ± 2.7e-05 s⁻¹ | – | 0.00105 ± 0.00019 s⁻¹ | 0.00254 ± 0.00097 s⁻¹ | 0.00595 ± 0.00078 s⁻¹ | 4300 ± 1100 µM
A14G U54C | 0.151 ± 0.0085 s⁻¹ | 0.00134 ± 0.00025 s⁻¹ | 0.00536 ± 0.00096 s⁻¹ | 0.0185 ± 0.0064 s⁻¹ | – | 0.105 ± 0.042 s⁻¹ | 4420 ± 270 µM
A39G A64C | 0.000357 ± 5.4e-05 s⁻¹ | – | – | 5.91e-05 ± 2.4e-05 s⁻¹ | 0.000202 ± 5.3e-05 s⁻¹ | 0.000267 ± 5.3e-05 s⁻¹ | 2860 ± 950 µM
